Source: patent US20110206668A1

Target: murine MRC OX-2 (mouse) (UniProt O54901)
Experiment: FACS of 10-day cultured mouse bone marrow derived dendritic cells, anti-CD200 and PE anti-mouse IgG

Sequence of UniProt O54901 (O54901 31-278 limits assumed): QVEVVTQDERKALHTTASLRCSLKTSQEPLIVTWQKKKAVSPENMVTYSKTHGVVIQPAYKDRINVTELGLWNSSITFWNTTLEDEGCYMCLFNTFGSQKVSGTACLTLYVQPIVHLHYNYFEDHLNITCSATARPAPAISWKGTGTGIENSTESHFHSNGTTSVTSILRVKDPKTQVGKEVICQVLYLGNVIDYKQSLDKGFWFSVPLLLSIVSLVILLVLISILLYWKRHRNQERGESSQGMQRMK

percent stained cells: 14%
Substance: mouse IgG1 anti-rat CD200 (commercial anti-rat MRC OX-2 monoclonal antibody, Cedarlane Labs)
